The source of these data is patent US8084213, “Selection” (Domantis Limited).

One data set deals with scArc-Vk(E5)-HA (Phage P22 / human Vk). Briefly: co-capture PCR. As to conditions: tags: C-terminal Vk(E5) dAb fusion, chain copies: 2 scArc per operator (stated). The method, then: Tubes from Strep Thermofast 96-well plates are coated by applying 2 µl of 0.05 mg/ml biotinylated rat anti-HA mAb (clone 3F10, Roche), 0.2 µl of 0.5 mg/ml biotinylated protein L (Pierce), 1 µl of biotinylated 1 mg/ml β-galactosidase or 0.1 µl of 5 mg/ml biotinylated BSA (Sigma) respectively in 50 µl aliquots of PBS and incubating for 3 hours at room temperature. The monoclonal high-affinity α-HA mAb 3F10 recognises the C-terminal HA tag, β-galactosidase and protein L can be expected to interact with the $V_\kappa$(E5) light chain domain, while BSA serves as the negative control. At the end of the incubation the coating solution is removed and the first blocking solution consisting of 150 µl of 10 ng/ml biotinylated BSA (Sigma) in PBS is added to the wells and incubated for 15 minutes. At the end of the incubation the wells are washed three times with 150 µl of PBS and blocked additionally for 30 min at room temperature with buffer C+.
25 µl S30 in vitro translation reactions (EcoPro T7, Novagen) are assembled according to the manufacturer's instructions and supplemented with 1.5 µl of 1.7 mM PCR-amplified template in 0.1 mg/ml RNA and 0.75 µl of 100 mM oxidized glutathione. […]
The PCR amplification products are analysed by 1% agarose gel electrophoresis in TAE in the presence of ethidium bromide and imaged using GeneGeius Bio Imaging System (Syngene). […]

In data set [1] the target is T1, scArc-HA (pIE2 series, single-chain Arc repressor dimer) (Phage P22).
T1 chain: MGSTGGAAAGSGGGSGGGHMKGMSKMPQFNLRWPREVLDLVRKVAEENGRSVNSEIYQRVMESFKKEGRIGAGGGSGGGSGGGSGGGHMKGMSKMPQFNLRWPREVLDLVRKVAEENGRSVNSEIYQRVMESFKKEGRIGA
Kind of data set: co-capture of DNA on anti-HA 3F10 surface, PCR detection; buffer C+ 100 mM KCl, 5 mM MgCl2, room temp. Particulars: tags: C-terminal HA; chain copies: 2 scArc per operator (stated). The method, then:
In a typical solution expression experiment 1 μl of 1.7 nM template in 0.2 mg/ml tRNA is added to 25 μl EcoPro T7 in vitro translation mix Novagen), supplemented with 0.75 μl of 100 mM oxidized glutathione (Sigma), and incubated at 25° C. for four hours. During the translation reaction the streptavidin-coated PCR tubes, cut from Strep Thermofast 96-well plates (Abgene), are first incubated at room temperature for three hours with 50 μl of at least 40 nM biotinylated target protein in PBS. The coating buffer is thereafter removed and any remaining free biotin-binding sites are blocked with a 15 min pulse of 50 μg/ml biotinylated BSA in PBS. The pre-coated wells are thereafter three times washed with PBS and then filled with 100 μl of binding buffer C+ (100 mM KCl, 20 mM Tris, 5 mM MgCl_2, 0.05% Tween 20, 0.05 mM EDTA, 1% BSA). Upon completion of the translation reaction the products are diluted in Buffer C+ and applied to the pre-coated and blocked PCR tubes, allowed to bind for 30 min at room temperature and washed 4 times with 150 μl of Buffer C+. […]

B1: Arc operator, one copy, on linear genetic element (dsDNA)
DNA 1: ATGATAGAAGCACTCTACTAT
DNA 2: ATAGTAGAGTGCTTCTATCAT
Take B1: the binding result (with scArc-Vk(E5)-HA; in data set [1]) was “binds” each time.
